Laboratory results from paper PMC2362229.

Test system: COc1cccc2c1C(=O)c1c(O)c3c(c(O)c1C2=O)C[C@@](O)(C(C)=O)C[C@@H]3O[C@H]1C[C@H](N)[C@H](O)[C@H](C)O1
Assay: cells, lysate or membranes named
Details: other: Lineweaver-Burk plots; rat canalicular vesicles; pH 7.4

Chain of Mdr1b P-gp (Rattus norvegicus) (chain, as listed by the source): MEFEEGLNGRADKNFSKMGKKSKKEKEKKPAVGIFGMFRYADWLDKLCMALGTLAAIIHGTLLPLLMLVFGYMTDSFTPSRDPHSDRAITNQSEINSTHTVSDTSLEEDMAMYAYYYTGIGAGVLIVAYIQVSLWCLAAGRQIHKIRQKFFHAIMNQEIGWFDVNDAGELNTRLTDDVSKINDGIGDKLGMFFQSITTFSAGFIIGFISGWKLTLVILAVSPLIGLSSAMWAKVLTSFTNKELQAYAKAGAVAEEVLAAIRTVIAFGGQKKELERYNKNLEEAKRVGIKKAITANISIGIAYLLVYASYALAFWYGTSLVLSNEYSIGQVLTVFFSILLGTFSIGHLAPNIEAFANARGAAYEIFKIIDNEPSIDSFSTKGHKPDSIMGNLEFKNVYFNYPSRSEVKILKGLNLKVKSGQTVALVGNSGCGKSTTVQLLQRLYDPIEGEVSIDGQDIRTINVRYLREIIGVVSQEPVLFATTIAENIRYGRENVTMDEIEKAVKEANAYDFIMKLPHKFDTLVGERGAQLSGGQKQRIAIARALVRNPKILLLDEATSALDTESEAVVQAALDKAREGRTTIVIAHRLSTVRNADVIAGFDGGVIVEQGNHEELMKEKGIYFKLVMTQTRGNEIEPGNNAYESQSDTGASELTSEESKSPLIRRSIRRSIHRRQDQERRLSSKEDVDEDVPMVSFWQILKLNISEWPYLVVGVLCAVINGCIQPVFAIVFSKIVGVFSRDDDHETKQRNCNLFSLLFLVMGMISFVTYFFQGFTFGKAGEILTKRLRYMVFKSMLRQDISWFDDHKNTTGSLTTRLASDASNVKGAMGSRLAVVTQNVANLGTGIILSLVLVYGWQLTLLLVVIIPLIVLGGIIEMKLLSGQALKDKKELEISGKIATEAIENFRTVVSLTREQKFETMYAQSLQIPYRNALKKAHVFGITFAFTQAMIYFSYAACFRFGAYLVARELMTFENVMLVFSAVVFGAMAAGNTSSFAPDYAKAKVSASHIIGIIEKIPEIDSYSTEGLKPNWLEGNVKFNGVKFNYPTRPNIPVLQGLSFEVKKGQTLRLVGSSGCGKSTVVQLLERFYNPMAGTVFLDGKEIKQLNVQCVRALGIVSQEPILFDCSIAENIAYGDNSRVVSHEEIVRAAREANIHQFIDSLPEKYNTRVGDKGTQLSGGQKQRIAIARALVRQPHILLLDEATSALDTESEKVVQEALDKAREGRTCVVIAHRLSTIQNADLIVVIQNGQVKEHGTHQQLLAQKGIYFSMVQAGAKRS

Mdr1b P-gp (Rattus norvegicus) gave a Km of 33 µM.
